Experimental data: article PMC12281484, “Targeted O‑GlcNAcylation of CK2α Triggers Its Ubiquitin-Proteasome Degradation and Alters Downstream Phosphorylation” (ACS Chemical Biology, 2025)

Biological target: T1, HTN-CK2α^WT with O-GlcNAcylation at Ser347 induced by OGTAC-1 (cells co-expressing fOGT) (UniProt P68400 1-391, O-GlcNAc at Ser347 (level increased by about 2-fold with 100 nM OGTAC-1 at 8 h))
T1 construct: casein kinase II subunit α (CK2α); Same construct as m1; only a part of the copies is modified (the level is raised over the baseline, not complete); also called HTN-CK2α (OGTAC-1 treated); CK2α with higher O-GlcNAcylation level; source: transfected cells co-expressing fOGT, treated with OGTAC-1 for 8 h, in lysate; not shown: HaloTag, N-terminal, kept
Experiment: co-IP; Flag-CRBN, HTN-CK2α (WT or S347A) and fOGT (WT or K852A) overexpressed in cells; DMSO or 100 nM OGTAC-1 for 8 h; HaloTrap IP; anti-FlagTag and anti-HA-Tag blots
Settings: partners not purified

T1 sequence (P68400 whole entry): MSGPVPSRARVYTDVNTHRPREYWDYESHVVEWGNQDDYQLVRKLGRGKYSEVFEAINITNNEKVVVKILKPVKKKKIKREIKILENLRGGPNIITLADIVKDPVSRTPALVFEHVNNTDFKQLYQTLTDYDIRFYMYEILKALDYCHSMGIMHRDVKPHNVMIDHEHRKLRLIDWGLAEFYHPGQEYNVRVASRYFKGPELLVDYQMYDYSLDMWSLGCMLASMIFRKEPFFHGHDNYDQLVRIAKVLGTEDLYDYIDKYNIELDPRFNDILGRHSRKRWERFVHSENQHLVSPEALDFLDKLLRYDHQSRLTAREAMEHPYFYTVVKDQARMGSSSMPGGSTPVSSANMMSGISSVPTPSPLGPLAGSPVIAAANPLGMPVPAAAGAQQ

B1: Flag-CRBN (cereblon) (natural protein, UniProt Q96SW2 1-442, looked up)
chain: MAGEGDQQDAAHNMGNHLPLLPAESEEEDEMEVEDQDSKEAKKPNIINFDTSLPTSHTYLGADMEEFHGRTLHDDDSCQVIPVLPQVMMILIPGQTLPLQLFHPQEVSMVRNLIQKDRTFAVLAYSNVQEREAQFGTTAEIYAYREEQDFGIEIVKVKAIGRQRFKVLELRTQSDGIQQAKVQILPECVLPSTMSAVQLESLNKCQIFPSKPVSREDQCSYKWWQKYQKRKFHCANLTSWPRWLYSLYDAETLMDRIKKQLREWDENLKDDSLPSNPIDFSYRVAACLPIDDVLRIQLLKIGSAIQRLRCELDIMNKCTSLCCKQCQETEITTKNEIFSLSLCGPMAAYVNPHGYVHETLTVYKACNLNLIGRPSTEHSWFPGYAWTVAQCKICASHIGWKFTATKKDMSPQKFWGLTRSALLPTIPDTEDEISPDKVILCL
notes: cereblon (CRBN), plasmid bought from Addgene; source: co-IP methods: HeLa or HEK293T
  fold change of co-IPed CRBN over the DMSO treatment: ~2 fold
